Source: the Human Domainome abundance scans (Beltran et al. 2025)

B1: Bromodomain adjacent to zinc finger domain protein 2B, residues 1927 to 1982; numbered along this chain, Q9UIF8 (parent)
chain: KSIMKVYCQICRKGDNEELLLLCDGCDKGCHTYCHRPKITTIPDGDWFCPACIAKA

Variants of: B1
Assay: abundance fitness (aPCA) (normalised: wild type 0, dead -1); higher = more abundant; growth selection in yeast, the domain comes from the species named
Conditions: Homo sapiens

Abundance fitness: each site, then its substitutions
T41: S -0.091, G 0.001, W -0.167, D -0.085, A -0.112, Q -0.018, Y -0.217, C -0.09, L -0.187, K 0.085, N -0.059, V -0.057, P 0.074, R -0.048, H -0.041, M -0.108, E 0.023
Y33: N -0.213, F -0.154, K -0.123, D -0.123, C -0.289, T 0.089, I -0.223, A -0.105, S -0.086, P -0.323, L -0.202, R -0.053, W -0.178, H -0.111, V -0.178, E -0.058
H31: C -0.483, Q -0.622, A -0.683, Y -0.573, W -0.856, R -0.601, V -0.624, I -0.817, N -0.553, M -0.71, S -0.639, T -0.446, D -0.386, F -0.954, L -0.926, G -0.471, K -0.5, P -0.556, E -0.753
K38: V -0.104, H -0.153, F -0.147, M -0.09, W -0.216, T -0.016, L 0.015, E -0.186, I -0.071, P -0.122, Q -0.219, C -0.128, N -0.139, R -0.122, Y -0.148, S -0.059
G29: Q -0.053, A -0.061, F -0.035, S -0.019, Y -0.093, P -0.321, I 0.084, E -0.078, H -0.167, V 0.002, M -0.279, C 0.004, R -0.075, W -0.147, D -0.378, L -0.149, T -0.088, N -0.013
H35: P -0.093, K 0.024, M 0.002, A 0.021, Y -0.201, V -0.052, I -0.019, W -0.18, G -0.102, E -0.169, C -0.084, R -0.137, F -0.109, N -0.09, S -0.105, Q -0.09, D 0.001, L 0.027
D46: W -0.582, P 0.058, G -0.031, M -0.218, I -0.305, E 0.028, N -0.009, C -0.06, S -0.006, F -0.334, Q 0.117, T -0.094, Y -0.375, A -0.146, K 0.033, L -0.233, H -0.122, V -0.046
G45: W -0.728, R 0.023, A -0.154, D -0.068, C -0.235, V -0.139, K -0.425, S -0.005, M -0.371
F48: A 0.021, C 0.037, E -0.028, I 0.07, H -0.029, K 0.085, G -0.06, L -0.064
R36: T 0.078, I -0.175, E 0.058, F -0.154, G -0.015, K -0.168, Q -0.1, V 0.053, W -0.004, P -0.078, D -0.03, H 0.021, S 0.065, C 0.008, A -0.007, L 0.06, Y -0.252
W47: I -0.092, C -0.287, F -0.345, A -0.168, N -0.186, R -0.115, T -0.213, E -0.338, G -0.289, D -0.15, V -0.338, K -0.127, Q -0.203, P -0.165, Y -0.165, L -0.312, H -0.169
K28: Y -0.035, S -0.089, T -0.026, Q 0.094, W 0.008
I42: L -0.015, V -0.039, M 0.049, Y -0.093, A 0.042, D -0.209, E 0.069, K 0.009, T 0.011, Q -0.201, H -0.235, S -0.065, R -0.054, G -0.048, F -0.007, P -0.043
C34: N -0.818, Q -0.731, P -0.675, A -0.688, W -0.895, Y -0.659, S -0.584, T -0.694, K -0.561, F -0.766, H -0.216, V -0.771, M -0.672, D -0.63, G -0.495, L -0.763, I -0.961
P43: S 0.053, A -0.006, R -0.083, Y -0.263, N -0.245, G -0.016, L -0.163, Q 0.024, W -0.188, M -0.269, C -0.095, T -0.003, F -0.451, E -0.041, I 0.092, D -0.071, V -0.127, H -0.217, K -0.08
D44: H -0.022, T -0.078, A -0.11, W -0.205, Y -0.222, L -0.085, K -0.235, R -0.086, G -0.017, V -0.105, S -0.031, P 0.048, I -0.018, N 0.111, Q -0.282, E -0.206, M -0.083
P37: F -0.333, R -0.227, G -0.161, H -0.188, T -0.148, A -0.056, W -0.31, L -0.177, S -0.202, N -0.166, C -0.32, D -0.195, M -0.227, Y -0.602, Q -0.239, E 0.026, V -0.228
T40: I -0.123, A -0.164, F -0.015, S -0.131, V -0.056, R -0.043, D -0.095, Y -0.11, L -0.049, G -0.106, P 0.031, E -0.026, H -0.128, M -0.024, W -0.082, K 0.072, N -0.232
T32: I 0.004, W -0.141, V -0.053, G -0.118, C -0.333, P -0.271, F -0.235, E -0.27, A -0.065, R -0.078, H -0.111, K -0.156, N -0.133, Y -0.019, L 0.026, Q -0.131, S 0.052, M -0.048
I39: D -0.194, M 0.039, T -0.124, A -0.068, Q -0.059, N 0.002, C 0.011, E 0.04, V -0.031, K -0.111, F -0.164, G -0.1, W -0.137, P -0.266, S -0.087, H -0.189
C30: E 0.034, F -0.002, V -0.071, W 0.031, Q 0.024, G -0.009, R -0.023, L -0.064, K -0.076, A -0.101, D -0.238, M 0.069, I 0.15, P -0.459, T 0.039, H -0.016, N -0.208, Y 0.004, S -0.011
